This note sets out measurements from US20220332835A1 (SHANGHAITECH UNIVERSITY, published 2022).

T1: human CXCR2 (hCXCR2) on cells (human, UniProt P25025 1-360)
T1 sequence (looked up): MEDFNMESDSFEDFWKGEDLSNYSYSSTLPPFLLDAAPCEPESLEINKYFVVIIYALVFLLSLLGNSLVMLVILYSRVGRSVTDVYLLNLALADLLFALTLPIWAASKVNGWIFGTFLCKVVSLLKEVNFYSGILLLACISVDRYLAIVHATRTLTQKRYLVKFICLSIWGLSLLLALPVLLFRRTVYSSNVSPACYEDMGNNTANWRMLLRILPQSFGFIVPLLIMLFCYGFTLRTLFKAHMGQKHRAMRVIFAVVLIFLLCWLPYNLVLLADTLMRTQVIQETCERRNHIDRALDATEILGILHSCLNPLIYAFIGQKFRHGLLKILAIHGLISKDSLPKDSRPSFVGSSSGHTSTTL

T2: pepN48 (peptide of the 48 N-terminal extracellular amino acids of human CXCR2) (human, biotin labeled on its N-terminus (panning, ELISA, SPR))
T2 construct: Synthetic; also called N-terminus of CXCR2
T2 peptide: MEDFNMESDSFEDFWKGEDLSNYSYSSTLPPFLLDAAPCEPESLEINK

T3: pepN9-19 (human)
T3 construct: Synthetic peptide, residues 9-19 of human CXCR2 (DSFEDFWKGED); also called NT9-19; pep9-19
T3 peptide: DSFEDFWKGED

T4: pepN48Δ9-19 (human)
T4 construct: pepN48 with residues 9-19 deleted; also called pepN48 lacking 9-19 aa
T4 peptide: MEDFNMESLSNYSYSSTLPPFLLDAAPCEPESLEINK

B1: abN48-1 (antibody, V domains shown)
VH: QVQLVQSGAEVKKPGSSVKVSCKASGGTLSSYAISWVRQAPGQGPEWMGWINPNSGGTNYAQKFQGRVTMTRDTSISTAYMELSRLRPDDTAVYYCASGFCTRTICFVYWGQGTLVTVSS
VL: QAVLTQPSSLSASPGASVSLTCTLRSGINVGAYRIYWYQQKPGSPPQFLLRYKSDSDKQQGSGVPSRFSGSRDASANAGILLISGLRSEDEADYYCAIWHSSAWVFGGGTQLTVLG
notes: Format as tested not clearly stated (sub-cloned to pFuse vector, expressed in HEK293T)
B2: abN48-7 (antibody, V domains shown)
VH: QVQLVQSGAEVKKPGSSVKVSCKASGGTLSSYAISWVRQAPGQGPEWMGWINPNSGGTNYAQKFQGRVTMTRDTSISTAYMELSRLRPDDTAVYYCASGYCGRARCTSFWGQGTLVTVSS
VL: QAVLTQPSSLSASPGASVSLTCTLRSGINVGAYRIYWYQQKPGSPPQFLLRYKSDSDKQQGSGVPSRFSGSRDASANAGILLISGLRSEDEADYYCAIWHSSAWVFGGGTQLTVLG
notes: format as tested not clearly stated
B3: abN48-6 (antibody, V domains shown)
VH: QVQLVQSGAEVKKPGSSVKVSCKASGGTLSSYAISWVRQAPGQGPEWMGWINPNSGGTNYAQKFQGRVTMTRDTSISTAYMELSRLRPDDTAVYYCASGYCSPSGCYVYWGQGTLVTVSS
VL: QAVLTQPSSLSASPGASVSLTCTLRSGINVGAYRIYWYQQKPGSPPQFLLRYKSDSDKQQGSGVPSRFSGSRDASANAGILLISGLRSEDEADYYCAIWHSSAWVFGGGTQLTVLG
notes: as for B2
B4: abN48-4 (antibody, V domains shown)
VH: QVQLVQSGAEVKKPGSSVKVSCKASGGTLSSYAISWVRQAPGQGPEWMGWINPNSGGTNYAQKFQGRVTMTRDTSISTAYMELSRLRPDDTAVYYCASGYCNRTRCYDHWGQGTLVTVSS
VL: QAVLTQPSSLSASPGASVSLTCTLRSGINVGAYRIYWYQQKPGSPPQFLLRYKSDSDKQQGSGVPSRFSGSRDASANAGILLISGLRSEDEADYYCAIWHSSAWVFGGGTQLTVLG
notes: as for B2
B5: abN48-8 (antibody, V domains shown)
VH: QVQLVQSGAEVKKPGSSVKVSCKASGGTLSSYAISWVRQAPGQGPEWMGWINPNSGGTNYAQKFQGRVTMTRDTSISTAYMELSRLRPDDTAVYYCASGYCSRSRCYDYWGQGTLVTVSS
VL: QAVLTQPSSLSASPGASVSLTCTLRSGINVGAYRIYWYQQKPGSPPQFLLRYKSDSDKQQGSGVPSRFSGSRDASANAGILLISGLRSEDEADYYCAIWHSSAWVFGGGTQLTVLG
notes: as for B2
B6: abN48-5 (antibody, V domains shown)
VH: QVQLVQSGAEVKKPGSSVKVSCKASGGTLSSYAISWVRQAPGQGPEWMGWINPNSGGTNYAQKFQGRVTMTRDTSISTAYMELSRLRPDDTAVYYCASGYCSRFNCKDYWGQGTLVTVSS
VL: QAVLTQPSSLSASPGASVSLTCTLRSGINVGAYRIYWYQQKPGSPPQFLLRYKSDSDKQQGSGVPSRFSGSRDASANAGILLISGLRSEDEADYYCAIWHSSAWVFGGGTQLTVLG
notes: as for B2
B7: abN48-3 (antibody, V domains shown)
VH: QVQLVQSGAEVKKPGSSVKVSCKASGGTLSSYAISWVRQAPGQGPEWMGWINPNSGGTNYAQKFQGRVTMTRDTSISTAYMELSRLRPDDTAVYYCASGYCSFAICFDSWGQGTLVTVSS
VL: QAVLTQPSSLSASPGASVSLTCTLRSGINVGAYRIYWYQQKPGSPPQFLLRYKSDSDKQQGSGVPSRFSGSRDASANAGILLISGLRSEDEADYYCAIWHSSAWVFGGGTQLTVLG
notes: as for B2
B8: abN48 Fab (Fab, V domains shown)
VH: QVQLVQSGAEVKKPGSSVKVSCKASGGTLSSYAISWVRQAPGQGPEWMGWINPNSGGTNYAQKFQGRVTMTRDTSISTAYMELSRLRPDDTAVYYCASGYCSSTSCYDYWGQGTLVTVSS
VL: QAVLTQPSSLSASPGASVSLTCTLRSGINVGAYRIYWYQQKPGSPPQFLLRYKSDSDKQQGSGVPSRFSGSRDASANAGILLISGLRSEDEADYYCAIWHSSAWVFGGGTQLTVLG
notes: also called abN48 (Fab form); Fab form of abN48-IgG1
B9: abN48-2 Fab (Fab, V domains shown)
VH: QVQLVQSGAEVKKPGSSVKVSCKASGGTLSSYAISWVRQAPGQGPEWMGWINPNSGGTNYAQKFQGRVTMTRDTSISTAYMELSRLRPDDTAVYYCASGYCSRTRCYDYWGQGTLVTVSS
VL: QAVLTQPSSLSASPGASVSLTCTLRSGINVGAYRIYWYQQKPGSPPQFLLRYKSDSDKQQGSGVPSRFSGSRDASANAGILLISGLRSEDEADYYCAIWHSSAWVFGGGTQLTVLG
notes: Made as abN48 Fab ('following a similar protocol'); also called abN48-2 (Fab form); Fab form of abN48-2-IgG2 (so in the source)

In the first experiment the target is T1, human CXCR2 (hCXCR2) on cells. Put plainly: cell-based or functional assay.
“IL8 (from UniProt P10145 28-99) (ligand)”: the β-arrestin recruitment, Tango assay, apparent EC50 was 4500 pM.

For “GROα (CXCL1) (from UniProt P09341 35-107) (ligand)”, the β-arrestin recruitment, Tango assay, apparent EC50 stood at 5300 pM.

The target in another experiment is T2, pepN48 (peptide of the 48 N-terminal …). Put plainly: SPR, Biacore T200; biotinylated pepN48 on SA chip.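 Note: antibodies flowed in HBS-EP+ running buffer over the immobilized antigen at 0.5 to 10 nM, kinetic traces fitted to a protein-protein interaction model to derive constants.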 Background: Surface plasmon resonance follows binding to a sensor surface in real time, without labels.
Protocol: Biotinylated antigen (purified protein or peptide) was loaded on the streptavidin coated surface of a SA biosensor chip (GE healthcare) to form a single molecular layer. The interaction between antibody and antigen was carried out on a Biacore T200 system (GE Healthcare). Briefly, testing antibody were serially diluted in a running buffer, HBS-EP+buffer (GE Healthcare), to different concentrations of 0.5, 1, 2, 5, 10 nM, and flowed through the surface of chip for the detection of molecular interaction between antigen and antibody. Kinetics of binding/dissociation were measured and fitted to an appropriate protein-protein interaction model to calculate the corresponding binding constant (KD).
The Kd is the equilibrium constant for the complex coming apart. Low values mean a tighter complex, high ones a looser complex. One may read the koff as the rate constant with which the complex falls apart. Read a low koff as slow dissociation. One may read the kon as the second-order rate constant of association. A lower kon goes with slower complex formation. With B1, the Kd is 260 pM, the koff was determined as 6.4e-05 s⁻¹ and the association rate constant (kon) stood at 250000 M⁻¹ s⁻¹.

The molecule B2 showed a dissociation constant (Kd) of 12 pM, a dissociation rate constant (koff) of 0.00015 s⁻¹ and a kon of 1.3e+07 M⁻¹ s⁻¹.

B3 showed a Kd of 210 pM, an off-rate constant (koff) of 1.8e-05 s⁻¹ and a kon of 85000 M⁻¹ s⁻¹.

B4 yielded a Kd of 31 pM, a koff of 1.6e-05 s⁻¹ and a kon of 520000 M⁻¹ s⁻¹.

As to B5, the affinity, expressed as Kd, was 16 pM; the koff was 2e-05 s⁻¹; the kon is 1.2e+06 M⁻¹ s⁻¹.

As to B6, the Kd is at most 1.2 pM, the off-rate constant (koff) is at most 1e-06 s⁻¹ and the kon is 810000 M⁻¹ s⁻¹.

B7: binding was put at a Kd of 630 pM, the off-rate constant (koff) was 0.00016 s⁻¹ and the association rate constant (kon) worked out at 360000 M⁻¹ s⁻¹.

The target in the next experiment is T3, pepN9-19. Put plainly: binding to truncated synthetic peptides (FIG. 9); method not named.
Regarding B8, the binding result is listed as “binds”.

Take B9: the binding result is reported as “binds”.

A further experiment deals with T4, pepN48Δ9-19. The experiment is described as above.
As for B8, the binding result is “no binding”.

With B9, the binding result is given as “no binding”.
